Like-named read-outs stand apart in the source and are kept apart here.
Tests used:
[1] = biological target: T1, trimeric, post-fusion form of sE, the soluble fragment of dengue virus type 2 (S1 strain) envelope glycoprotein E (dengue virus type 2 S1 strain), P12823; test: fluorescence depolarization; 33nM labelled peptide titrated with dengue sE trimer (x axis µM E)
[2] = biological target: T1, trimeric, post-fusion form of sE, the …; test: fluorescence depolarization, labeled peptide titrated with trimeric sE
[3] = biological target: T1, trimeric, post-fusion form of sE, the …
[4] = biological target: T1, trimeric, post-fusion form of sE, the …; test: fluorescence depolarization

SSIGQMFETTMRGAKRMAILGDTAWDFGSLGGVF (modifications not checked) [fluorescently labeled version of the peptide corresponding to residues 396-429 (stem region) of deng]
EC50 (read off the curve) [1]: 5 µM
Kd [2]: 6 µM

AILGDTAWDFGSLGGVFTSIGKALHQVFGAIYGAA (modifications not checked) [stem peptide including residues 413-447 of dengue envelope protein E]
EC50 (read off the curve) [3]: 3 µM
Kd [4]: 4 µM

Source: patent US20100105151A1
